Results reported in publication PMC11900867.
Read-outs that look alike come from different tables or passages of the source.

Legend:
[1] = target: Coxsackievirus B3 (CVB3) 3CD protein (uncleaved 3C^pro-3D^pol) with Cys147Ala, Gly55Ala, Asp58Ala, Val63Ala (coxsackievirus B3 (CVB3)); experiment: mass photometry
[2] = target: Coxsackievirus B3 (CVB3) 3CD protein (uncleaved 3C^pro-3D^pol) with Cys147Ala, Gly55Ala, Asp58Ala, Val63Ala (coxsackievirus B3 (CVB3)); experiment: mass photometry; remark: listed apart in the source
[3] = target: Coxsackievirus B3 (CVB3) 3C^pro protease, protease-inactive mutant (Cys147Ala) with Gly55Ala, Asp58Ala, Val63Ala (coxsackievirus B3 (CVB3)); experiment: SEC
[4] = target: Coxsackievirus B3 (CVB3) 3C^pro protease, protease-inactive mutant (Cys147Ala) with Gly55Ala, Asp58Ala, Val63Ala (coxsackievirus B3 (CVB3)); experiment: mass photometry

Substance	percent of total counts in the peak of 3CD dimer with one cloverleaf RNA [1] [%]	stoichiometry N [1]	stoichiometry N [2]	stoichiometry N [3]	stoichiometry N [4]
Coxsackievirus B3 (CVB3) 3CD protein (uncleaved 3C^pro-3D^pol) with Cys147Ala, Gly55Ala, Asp58Ala, Val63Ala (enzyme)	19 to 23	2	2	–	–
Coxsackievirus B3 (CVB3) 3C^pro protease, protease-inactive mutant (Cys147Ala) with Gly55Ala, Asp58Ala, Val63Ala (enzyme)	–	–	–	2	2
